Test [1] addresses T1, cynomolgus DKK1 (cynomolgus monkey (Macaca fascicularis), UniProt A0A7N9IE82 32-266).
T1 construct: also called cyno DKK1; monkey DKK1 (Novartis)
T1 sequence: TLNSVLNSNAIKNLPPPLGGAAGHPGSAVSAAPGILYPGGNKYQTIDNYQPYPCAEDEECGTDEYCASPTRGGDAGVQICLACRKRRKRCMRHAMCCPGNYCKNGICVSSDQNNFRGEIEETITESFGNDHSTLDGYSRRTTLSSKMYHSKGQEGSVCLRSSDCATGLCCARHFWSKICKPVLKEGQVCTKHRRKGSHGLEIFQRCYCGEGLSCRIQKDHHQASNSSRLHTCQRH
The experiment in a line: SPR (Biacore), DKK1 immobilised on CM5 chip, Fab as analyte. The protocol: (§1) Using these clones, kinetic SPR analysis is performed on a. […] The Fab preparations are applied in concentration series of 16-500 nM at a flow rate of 20 μl/min. Association phase is set to 60 s and dissociation phase to 120 s.

The target in test [2] is T2, recombinant human DKK1 (human, UniProt O94907 32-266).
T2 construct: also called Dickkopf-1; rhDKK1
T2 sequence: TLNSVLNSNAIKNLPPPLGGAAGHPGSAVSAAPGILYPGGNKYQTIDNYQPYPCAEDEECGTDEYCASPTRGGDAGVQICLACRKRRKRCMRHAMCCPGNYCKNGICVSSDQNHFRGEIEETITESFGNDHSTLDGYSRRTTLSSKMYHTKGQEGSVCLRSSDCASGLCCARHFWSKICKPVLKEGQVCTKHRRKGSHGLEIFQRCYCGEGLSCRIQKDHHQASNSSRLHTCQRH
Described as above. On the procedure: as §1

Test [3] concerns the target T3, mouse DKK1 (R&D Systems) (mouse, UniProt O54908 32-272).
T3 construct: Bought protein
T3 sequence (looked up): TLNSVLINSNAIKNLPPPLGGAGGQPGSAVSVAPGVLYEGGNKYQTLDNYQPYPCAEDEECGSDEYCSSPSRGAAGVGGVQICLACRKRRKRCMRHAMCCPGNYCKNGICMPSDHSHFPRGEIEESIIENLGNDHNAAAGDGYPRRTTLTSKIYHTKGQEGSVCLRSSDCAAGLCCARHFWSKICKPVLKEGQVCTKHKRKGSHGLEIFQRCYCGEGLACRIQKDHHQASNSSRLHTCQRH
The description is as above. On the procedure: as §1

In test [4] the target is T1, cynomolgus DKK1. Described as above. The protocol: as §1
This is another data set of the same source.

For test [5], the target named is T2, recombinant human DKK1. The test is described as above. The protocol:
as §1
The source holds these as a separate data set.

The target in test [6] is T3, mouse DKK1 (R&D Systems). The test is described as above. On the procedure:
as §1
This is another data set of the same source.

For test [7], the target named is T4, DKK1-APP (human, UniProt O94907 32-266).
T4 sequence: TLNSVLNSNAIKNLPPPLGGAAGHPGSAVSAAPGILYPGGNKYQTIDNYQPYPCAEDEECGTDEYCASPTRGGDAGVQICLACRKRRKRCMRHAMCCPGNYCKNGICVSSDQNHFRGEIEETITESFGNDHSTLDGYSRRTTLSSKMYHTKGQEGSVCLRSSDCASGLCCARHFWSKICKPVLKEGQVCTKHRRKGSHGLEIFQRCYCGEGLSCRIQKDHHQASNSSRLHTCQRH
Put plainly: cell-based or functional assay.

Test [8] concerns the target T1, cynomolgus DKK1. Put plainly: SPR (Biacore), DKK1 immobilised on CM5 chip, Fab as analyte. On the procedure: as §1
The source holds these as a separate data set. On the technique in general: In SPR one partner is held on a chip, and binding of the other changes the refractive index at the surface.

Test [9] deals with T2, recombinant human DKK1. Described as above. On the procedure:
as §1
The source holds these as a separate data set.

For test [10], the target named is T3, mouse DKK1 (R&D Systems). The test is described as above. On the procedure: as §1
The source holds these as a separate data set.

The target in test [11] is T4, DKK1-APP. The experiment in a line: cell-based or functional assay. The source holds these as a separate data set.
The target in test [12] is T4, DKK1-APP. The experiment in a line: cell-based or functional assay. The source holds these as a separate data set.
The target of test [13] is T5, biotinylated human DKK1 (human, UniProt O94907 32-266, biotinylated (sites not given)).
T5 construct: also called biotinylated DKK1; human recombinant, biotinylated DKK1
T5 sequence: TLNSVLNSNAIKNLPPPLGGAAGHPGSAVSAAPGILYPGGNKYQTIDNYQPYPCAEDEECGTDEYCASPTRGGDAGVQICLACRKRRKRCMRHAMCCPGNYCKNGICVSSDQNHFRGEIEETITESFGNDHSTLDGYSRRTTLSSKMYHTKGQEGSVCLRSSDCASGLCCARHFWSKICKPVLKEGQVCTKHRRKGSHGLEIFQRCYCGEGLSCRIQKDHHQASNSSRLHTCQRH
The experiment in a line: ELISA, biotinylated DKK1 on Neutravidin plates, Fab 1 ug/ml, anti-FLAG-AP detection; single measurement. On the procedure:
Binding specificity of the matured Fabs in the presence of 50% human serum (HS) is determined. […] After coating of the antigen, wells are blocked with TBS/0.05% Tween (TBS-T) supplemented with 1% BSA for 1 h at room temperature. Purified Fabs described above are diluted either in TBS/4% BSA or TBS/50% HS at a final concentration of 1 μg/ml, added to the coated and blocked wells and the plates are incubated for 1 h at room temperature. For detection, an anti-FLAG alkaline phosphatase (AP)-conjugated antibody (1:5000 dilution in TBST) and the fluorogenic substrate AttoPhos (Roche) are used. After each incubation, the wells of the microtiter plates are washed with TBST five times, except after the final incubation step with the labeled secondary antibody when wells are washed three times.
The fluorescence is measured in a TECAN Spectrafluor plate reader.

Test [14] addresses T1, cynomolgus DKK1. The experiment in a line: solution equilibrium titration (SET), ECL (BioVeris), Fab. On the procedure: (§2) Electrochemiluminescence (ECL) based affinity determination in solution and data evaluation are basically performed as described by Haenel et al., 2005. […] Subsequently, the concentration of unbound Fab is quantified by ECL detection using the M-SERIES® 384 analyzer (BioVeris Europe).
(§3) Affinities are calculated according to Haenel et al., 2005 Anal Biochem 339.1:182-184.

In test [15] the target is T2, recombinant human DKK1. The test is described as above. On the procedure:
as §2, §3

Test [16] addresses T3, mouse DKK1 (R&D Systems). The test is described as above. On the procedure: as §2, §3
In test [17] the target is T2, recombinant human DKK1. The experiment in a line: cell-based or functional assay.

B1: MOR04456 (Fab, V domains shown)
VH: QVQLVESGGGLVQPGGSLRLSCAASGFTFNNYGMTWVRQAPGKGLEWVSGISGSGSYTYYADSVKGRFTISRDNSKNTLYLQMNSLRAEDTAVYYCARTIYMDYWGQGTLVTVSS
VL: DIVLTQSPATLSLSPGERATLSCRASQNLFSPYLAWYQQKPGQAPRLLIYGASNRATGVPARFSGSGSGTDFTLTISSLEPEDFATYYCQQYGDEPITFGQGTKVEIKR
notes: Fab with C-terminal FLAG and 6xHis tags
Broadly, the Kd is a measure of binding affinity in units of concentration. As a reminder, the EC50 is the concentration that produces a half-maximal response. For B1, the Kd turned out to be 8.1 nM in [1]; 7.9 nM in test [2]; 11.6 nM in test [3]; 8.1 nM in test [4]; 7.9 nM in test [5]; 11.6 nM in [6]. The Kd in test [8] amounted to 8.1 nM; in test [9] it was 7.9 nM; in [10], 11.6 nM. Moreover, in test [7], the response was half-maximal at 95 nM (EC50). Besides, the “Luciferase reporter assay; EC50” value in test [11] came out at 95 nM.

B2: MOR04470 (Fab, V domains shown)
VH: QVQLVESGGGLVQPGGSLRLSCAASGFTFSSYWMSWVRQAPGKGLEWVSVISSDSSSTYYADSVKGRFTISRDNSKNTLYLQMNSLRAEDTAVYYCARHGIDFDHWGQGTLVTVSS
VL: DIALTQPASVSGSPGQSITISCTGTSSDLGGYNYVSWYQQHPGKAPKLMIYDVNNRPSGVSNRFSGSKSGNTASLTISGLQAEDEADYYCQSYASGNTKVVFGGGTKLTVLG
notes: as for B1
For B2, the dissociation constant (Kd) in test [1] was 1.7 nM; in test [2], 3.2 nM; in test [3], 3.6 nM; in [4], 1.7 nM; in test [5] it was 3.2 nM; in test [6], 3.6 nM. Moreover, the Kd in [8] is 1.7 nM; in test [9], 3.2 nM; in [10] it was 3.6 nM. Moreover, the “EC50” value in test [7] was 58 nM. Moreover, in [11], the “Luciferase reporter assay; EC50” value was 58 nM.

B3: MOR04461 (Fab, V domains shown)
VH: QVQLVESGGGLVQPGGSLRLSCAASGFTFSSYWMSWVRQAPGKGLEWVSGISYSGSNTHYADSVKGRFTISRDNSKNTLYLQMNSLRAEDTAVYYCARMGIDLDYWGQGTLVTVSS
VL: DIALTQPASVSGSPGQSITISCTGTSSDVGGFNYVSWYQQHPGKAPKLMIHDGSNRPSGVSNRFSGSKSGNTASLTISGLQAEDEADYYCSTWDMTVDFVFGGGTKLTVLG
notes: as for B1
For the molecule B3, the Kd in test [1] came to 7.3 nM; in test [2], 7.6 nM; in test [3], 12.8 nM; in test [4], 7.3 nM; in test [5] it was 7.6 nM; in test [6], 12.8 nM. Besides, the results for the Kd in test [8], in test [9] and in test [10] were 7.3 nM, 7.6 nM and 12.8 nM, respectively. For the same molecule, the “EC50” value in [7] was determined as 57 nM. For the same molecule, in test [11], the “Luciferase reporter assay; EC50” value came out at 57 nM.

B4: MOR04914 (Fab, V domains shown)
VH: QVQLVESGGGLVQPGGSLRLSCAASGFTFSSYWMSWVRQAPGKGLEWVSVISSDSSSTYYADSVKGRFTISRDNSKNTLYLQMNSLRAEDTAVYYCARHGIDFDHWGQGTLVTVSS
VL: DIALTQPASVSGSPGQSITISCTGTSSDLGGYNYVSWYQQHPGKAPKLMIYDVNNRPSGVSNRFSGSKSGNTASLTISGLQAEDEADYYCQSYTYTPISPVFGGGTKLTVLG
Consider B4, for which the “Luciferase reporter assay w/o Kremen; Activity in 15% Human serum (%)” value in test [12] was 80%. The “Binding activity w/50% Human serum vs 4% BSA (%)” value in [13] was 83%. Further, the Kd in [14] is 0.14 nM; in test [15], 0.094 nM; in test [16] it was 0.2 nM. For the same molecule, in test [17], the “TCF/LEF luc assay w/Kremen: EC50” value was 1.1 nM.

B5: MOR04921 (Fab, V domains shown)
VH: QVQLVESGGGLVQPGGSLRLSCAASGFTFSSYWMSWVRQAPGKGLEWVSGISYSGSNTHYADSVKGRFTISRDNSKNTLYLQMNSLRAEDTAVYYCARMGIDLDYWGQGTLVTVSS
VL: DIALTQPASVSGSPGQSITISCTGTSSDVGGFNYVSWYQQHPGKAPKLMIHDGSNRPSGVSNRFSGSKSGNTASLTISGLQAEDEADYYCQTWATSPLSSVFGGGTKLTVLG
Regarding B5, the “Luciferase reporter assay w/o Kremen; Activity in 15% Human serum (%)” value in [12] was determined as 26%. Moreover, in test [13], the “Binding activity w/50% Human serum vs 4% BSA (%)” value worked out at 93%. Besides, in [17], the “TCF/LEF luc assay w/Kremen: EC50” value is 0.7 nM.

B6: MOR04454 (Fab, V domains shown)
VH: QVQLVESGGGLVQPGGSLRLSCAASGFTFSNYGLHWVRQAPGKGLEWVSSISYYGSSTYYADSVKGRFTISRDNSKNTLYLQMNSLRAEDTAVYYCARDGSHMDKPPGYVFAFWGQGTLVTVSS
VL: DIQMTQSPSSLSASVGDRVTITCRASQGIKNYLNWYQQKPGKAPKLLIGAASSLQSGVPSRFSGSGSGTDFTLTISSLQPEDFATYYCLQYYGMPPTFGQGTKVEIKR
notes: as for B1
For the molecule B6, the equilibrium dissociation constant (Kd) in test [1] amounted to 2.7 nM; in [2], 3.2 nM; in test [3], 6 nM; in [4] it was 2.7 nM; in test [5], 3.2 nM; in [6], 6 nM. Moreover, the Kd in test [8] came to 2.7 nM; in test [9] it was 3.2 nM; in test [10] it was 6 nM. It took 83 nM to reach a half-maximal effect in test [7] (EC50). The “Luciferase reporter assay; EC50” value in test [11] amounted to 83 nM.

B7: MOR04516 (Fab, V domains shown)
VH: QVQLVQSGAEVKKPGESLKISCKGSGYSFTNYYIGWVRQMPGKGLEWMGIIYPTDSYTNYSPSFQGQVTISADKSISTAYLQWSSLKASDTAMYYCARGIPFRMRGFDYWGQGTLVTVSS
VL: DIVLTQPPSVSGAPGQRVTISCSGSSSNIGSSFVNWYQQLPGTAPKLLIGNNSNRPSGVPDRFSGSKSGTSASLAITGLQSEDEADYYCASFDMGSPNVVFGGGTKLTVLG
notes: Fab with C-terminal FLAG and 6xHis tags; also called MOR4516
As for B7, the Kd in [1] was 1.9 nM; in [2] it was 2.6 nM; in test [3], 2.4 nM; in test [4], 1.9 nM; in test [5], 2.6 nM; in test [6] it was 2.4 nM. For the same molecule, the Kd was 1.9 nM in [8], 2.6 nM in test [9] and 2.4 nM in test [10]. In addition, the “EC50” value in test [7] is 42 nM. Further, in test [11], the “Luciferase reporter assay; EC50” value was 42 nM.

Values taken from patent US20120023600A1 (Novartis, published 2012).
